Source: patent publication US20220348661A1 (HARBOUR BIOMED SHANGHAI, published 2022)

These binders were tested against T1, human CD3 (human, UniProt P07766 23-207; P09693 23-182; P04234 22-171; P20963 22-164) (assay: flow cytometry on human pan-T cells; MFI at 7.4 or 10 µg/ml relative to PR000260).
T1 construct: whole, on cells; SP34 is described as an anti-human CD3e antibody; also called human TCR/CD3 complex; CD3 on human pan-T cells
Excerpt: The flow cytometryFACS was used to analyse the binding of the CD3 antibody to CD3-expressing cells, where the CD3-expressing cells could be: CHOK1 cells overexpressing human CD3 or HEK 293 cells (plasmids encoding the ORF of γ, δ, ε, and ζ chains of human-derived CD3 and plasmids encoding the ORF of α and β chains of human TCR were co-transfected with host cells CHOK1 (ATCC, CCL-61) or HEK293 (ATCC, CRL-1573) to construct stable cell lines expressing the structure of the human TCR/CD3 complex); CHOK1 or HEK293 cells overexpressing cynomolgus monkey CD3; human pan-T cells (isolated with the human pan-T cell isolation kit (Miltenyi, #130-096-535) from PBMC); cynomolgus monkey pan-T cells. Specifically, the collected cells were washed twice with PBS containing 2% FBS (FACS buffer), and resuspended with FACS buffer, divided into 96 well plates with 1×10⁵ cells per well, centrifuged at 500 g for 5 minutes. The supernatant was discarded, and 100 μl of pre-gradient diluted CD3 antibody was added, then incubating for 1 hour at room temperature and washing twice with FACS buffer. The cells were resuspended with FACS buffer diluted with secondary antibody Alexa Fluor 488 AffiniPure Goat Anti-Human IgG, Fcγ fragment specific (Jackson ImmunoResearch, #109-545-098), then incubated at room temperature in the dark for 30 minutes. The cells were washed twice with FACS buffer, and resuspended with 200 μl FACS buffer. The fluorescent luminescence signal value were read by flow cytometry (BD FACS CANTOII or ACEA NovoCyte), and the resulted data were processed and analyzed by software FlowJo v10 (FlowJo, LLC). The software GraphPad Prism 8 was used for data processing and graphical analysis, and parameters such as binding curves and EC50 values can be obtained by four-parameter nonlinear fitting.
FIG. 7(A) to (G) show the binding ability of the CD3 antibodies obtained in the Example 4.2 (including PR000260 and its mutants) to human pan-T cells, respectively. The fluorescence intensity MFI of the CD3 antibody binding to human pan-T cells and the relative ratio relative to the initial antibody PR000260 were calculated when the antibody concentration was 7.4 or 10 μg/ml.

T1 sequence (P07766 23-207, chain 1 of 4): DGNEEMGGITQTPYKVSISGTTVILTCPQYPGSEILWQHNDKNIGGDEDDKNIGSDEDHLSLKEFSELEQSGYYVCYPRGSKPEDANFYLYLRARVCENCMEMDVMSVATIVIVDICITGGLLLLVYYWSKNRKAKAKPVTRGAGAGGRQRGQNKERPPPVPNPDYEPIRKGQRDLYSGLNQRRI
T1 sequence (P09693 23-182, chain 2 of 4): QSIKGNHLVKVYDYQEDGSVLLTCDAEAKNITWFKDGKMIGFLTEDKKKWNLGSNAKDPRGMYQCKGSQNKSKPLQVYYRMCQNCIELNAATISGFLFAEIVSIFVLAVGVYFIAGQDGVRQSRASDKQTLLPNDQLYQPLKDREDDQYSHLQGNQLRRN
T1 sequence (P04234 22-171, chain 3 of 4): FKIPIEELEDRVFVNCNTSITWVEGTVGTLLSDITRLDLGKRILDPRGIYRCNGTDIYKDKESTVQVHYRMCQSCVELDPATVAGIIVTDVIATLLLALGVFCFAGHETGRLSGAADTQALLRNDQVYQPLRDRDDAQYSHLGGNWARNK
T1 sequence (P20963 22-164, chain 4 of 4): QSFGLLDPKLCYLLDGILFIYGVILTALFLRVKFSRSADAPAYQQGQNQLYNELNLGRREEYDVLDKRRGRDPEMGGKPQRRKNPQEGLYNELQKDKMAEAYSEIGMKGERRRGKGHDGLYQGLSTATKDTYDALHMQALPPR

Row | Binder | binding result
1 | PR002836 (antibody, human IgG1, lambda, L234A L235A, V domains shown, humanized SP34 variant, IgG1 LALAPG; also called VH3733/VL7461 IgG) VH: EVQLVESGGGLVQPGGSLKLSCAASGFTFSTYAMNWVRQASGKGLEWVGRIRSKYNNYATYYADSVKDRFTISRDDSKSTLYLQMNSLKTEDTAVYYCTRHGNFGNSYVSWFAYWGQGTLVTVSS VL: QAVVTQEPSLTVSPGGTVTLTCRSSTGAVTTSNYANWVQQKPGQAPRGLIGGTNKRAPWTPARFSGSLLGDKAALTLLGAQPEDEAEYFCALWYSNLWVFGGGTKLTVLG | binds
2 | PR002837 (antibody, human IgG1, lambda, L234A L235A, V domains shown, humanized SP34 variant, IgG1 LALAPG; also called VH3734/VL7461 IgG) VH: EVQLVESGGGLVQPGGSLKLSCAASGFTFSTYAMNWVRQASGKGLEWVGRIRSKYNNYATYYADSVKDRFTISRDDSKNTAYLQMNSLKTEDTAVYYCVRHGNFGNSYVSWFAYWGQGTLVTVSS VL: QAVVTQEPSLTVSPGGTVTLTCRSSTGAVTTSNYANWVQQKPGQAPRGLIGGTNKRAPWTPARFSGSLLGDKAALTLLGAQPEDEAEYFCALWYSNLWVFGGGTKLTVLG | binds
3 | PR002472 (antibody, human IgG1, kappa, L234A L235A, V domains shown, humanized SP34 variant, IgG1 LALA; very low expression yield; also called VH3230/VK1393 IgG) VH: EVQLLESGGGLVQPGGSLRLSCAASGFTFNTYAMNWVRQAPGKGLEWVSRIRSKYNNYATYYADSVKDRFTISRDNSKNTLYLQMNSLRAEDTAVYYCAKHGNFGNSYVSWFAYWGQGTLVTVSS VL: DAQMTQSPSSLSASVGDRVTITCRSSTGAVTTSNYANWVQQKPGKAPKGLIGGTNKRAPGVPSRFSGSLSGDDATLTISSLQPEDFATYFCALWYSNLWVFGGGTKVEIKR | binds
4 | PR000514 (antibody, human IgG1, kappa, L234A L235A, V domains shown, humanized SP34 variant, IgG1 LALA; also called VH3731/VK1393 IgG) VH: EVQLVESGGGLVQPGGSLKLSCAASGFTFNTYAMNWVRQASGKGLEWVGRIRSKYNNYATYYADSVKDRFTISRDDSKSTLYLQMNSLKTEDTAVYYCVRHGNFGNSYVSWFAYWGQGTLVTVSS VL: DAQMTQSPSSLSASVGDRVTITCRSSTGAVTTSNYANWVQQKPGKAPKGLIGGTNKRAPGVPSRFSGSLSGDDATLTISSLQPEDFATYFCALWYSNLWVFGGGTKVEIKR | binds
5 | PR004616 (antibody, human IgG1, lambda, L234A L235A, V domains shown, humanized SP34 variant, IgG1 LALA; also called VH3233/VL7461 IgG) VH: EVQLLESGGGLVQPGGSLRLSCAASGFTFSTYAMNWVRQAPGKGLEWVSRIRSKYNNYATYYADSVKDRFTISRDNSKNTLYLQMNSLRAEDTAVYYCAKHGNFGNSYVSWFAYWGQGTLVTVSS VL: QAVVTQEPSLTVSPGGTVTLTCRSSTGAVTTSNYANWVQQKPGQAPRGLIGGTNKRAPWTPARFSGSLLGDKAALTLLGAQPEDEAEYFCALWYSNLWVFGGGTKLTVLG | binds
6 | PR003886 (antibody, human IgG1, lambda, L234A L235A, V domains shown, humanized SP34 variant, IgG1 LALA; also called VH3735/VL7461 IgG) VH: EVQLVESGGGLVQPGGSLKLSCAASGFTFSTYAMNWVRQASGKGLEWVGRIRSKYNNYATYYADSVKDRFTISRDDSKNTAYLQMNSLKTEDTAVYYCTRHGNFGNSYVSWFAYWGQGTLVTVSS VL: QAVVTQEPSLTVSPGGTVTLTCRSSTGAVTTSNYANWVQQKPGQAPRGLIGGTNKRAPWTPARFSGSLLGDKAALTLLGAQPEDEAEYFCALWYSNLWVFGGGTKLTVLG | binds
